From IntAct's records for PubMed 26258637 come the findings set out here.

The chains are these.
B1: Ras-related protein Rab-11A (Homo sapiens), P62491 (parent)
chain: MGTRDDEYDYLFKVVLIGDSGVGKSNLLSRFTRNEFNLESKSTIGVEFATRSIQVDGKTIKAQIWDTAGQERYRAITSAYYRGAVGALLVYDIAKHLTYENVERWLKELRDHADSNIVIMLVGNKSDLRHLRAVPTDEARAFAEKNGLSFIETSALDSTNVEAAFQTILTEIYRIVSQKQMSDRRENDMSPSNNVVPIHVPPTTENKPKVQCCQNI
partner: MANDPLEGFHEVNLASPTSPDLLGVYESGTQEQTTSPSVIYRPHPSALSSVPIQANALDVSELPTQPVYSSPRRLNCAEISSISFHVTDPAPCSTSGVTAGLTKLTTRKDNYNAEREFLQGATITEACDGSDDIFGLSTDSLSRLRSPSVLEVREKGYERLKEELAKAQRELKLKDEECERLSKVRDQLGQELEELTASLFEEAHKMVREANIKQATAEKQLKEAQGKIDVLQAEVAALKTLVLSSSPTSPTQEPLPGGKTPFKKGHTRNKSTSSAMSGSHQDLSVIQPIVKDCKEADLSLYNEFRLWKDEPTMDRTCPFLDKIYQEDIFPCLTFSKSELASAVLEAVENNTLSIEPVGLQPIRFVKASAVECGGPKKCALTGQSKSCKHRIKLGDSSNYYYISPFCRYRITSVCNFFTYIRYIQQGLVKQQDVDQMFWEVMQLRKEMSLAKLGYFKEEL
B2: Rab-3A-interacting protein (Homo sapiens), Q96QF0-2 (parent)
chain: B1 partner

Variants of B1 are the subject of one assay. To be noted: with RAB3IP.
Turning to MGTRDDEYDYLFKVVLIGDSGVGKNNLLSRFTRNEFNLESKSTIGVEFATRSIQVDGKTIKAQIWDTAGQERYRAITSAYYRGAVGALLVYDIAKHLTYENVERWLKELRDHADSNIVIMLVGNKSDLRHLRAVPTDEARAFAEKNGLSFIETSALDSTNVEAAFQTILTEIYRIVSQKQMSDRRENDMSPSNNVVPIHVPPTTENKPKVQCCQNI [S25N], the “effect of a mutation on the interaction” value is recorded as “disrupting interaction strength”.

In a further assay the parent is B2. Particulars: with rb11a_human RAB11A.
As for MANDPLEGFHEVNLASPTSPDLLGVYESGTQEQTTSPSVIYRPHPSALSSVPIQANALDVSELPTQPVYSSPRRLNCAEISSISFHVTDPAPCSTSGVTAGLTKLTTRKDNYNAEREFLQGATITEACDGSDDIFGLSTDSLSRLRSPSVLEVREKGYERLKEELAKAQRELKLKDEECERLSKVRDQLGQELEELTASLFEEAHKMVREANIKQATAEKQLKEAQGKIDVLQAEVAALKTLVLSSSPTSPTQEPLPGGKTPFKKGHTRNKSTSSAMSGSHQDLSVIQPIVKDCKEADLSLYNEFRLWKDEPTMDRTCPFLDKIYQEDIFPCLTFSKSELASAVLEAVENNTLSIEPVGLQPIRFVKASAVECGGPKKCALTGQSKSCKHRIKLGDSSNYYYISPFCRYRITSVCNFFAYIRAIQQGAVKQQDVDQMFWEVMQLRKEMSLAKLGYFKEEL [T419A;Y423A;L428A], the “effect of a mutation on the interaction” value was “decreasing interaction strength”.
